# Assay results taken from patent US20040033952A1 (published 2004).
# Positions count from the first letter of the chain named. Names may count otherwise.
# T1: human IGFBP-1 (human, UniProt P08833 26-259)
# T1 construct: mature; also called IGFBP-I
# T1 sequence (looked up): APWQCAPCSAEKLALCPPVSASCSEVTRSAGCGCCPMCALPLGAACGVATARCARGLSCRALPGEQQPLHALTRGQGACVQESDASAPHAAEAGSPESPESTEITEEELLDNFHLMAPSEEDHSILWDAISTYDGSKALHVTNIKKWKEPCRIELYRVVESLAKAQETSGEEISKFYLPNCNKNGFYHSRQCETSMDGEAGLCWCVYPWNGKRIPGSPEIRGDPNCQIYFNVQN
# T2: human IGFBP-1 (human), P08833
# T2 chain: T1 sequence (looked up)
# B1: IGF-I F49A (phage-displayed), P07455 51-118 (ligand, not shown: large carriers; small tags and cut ends)
# chain: SPETLCGAELVDALQFVCGDRGFYFNKPTGYGSSSRRAPQTGIVDECCARSCDLRRLEMYCAPLKPAKSV
# B2: Ala(1-3)-IGF-I (phage-displayed triple alanine mutant) (ligand)
# chain: B1 chain with S1A, P2A, E3A, A49F
# B3: IGF-I G7A (phage-displayed) (ligand)
# chain: B1 chain with G7A, A49F
# notes: G1S-A70V template; monovalent M13 display; not shown: M13 gene III fragment (residues 249-406), the display carrier, and its junction to IGF-I
# Legend:
# human IGFBP-1 = molecular target: T1, human IGFBP-1; assay: competitive phage ELISA
# Protocol: (§1) E. coli cells (XL1-Blue, Stratagene) freshly transformed with phagemid vector were grown overnight in 5 mL 2YT medium (Sambrook et al., supra) in the presence of M13-VCS helper phage (Stratagene). Phage particles were harvested and resuspended in PBS buffer as described in Lowman, H. B., “Phage Display of Peptide Libraries on Protein Scaffolds,” in Cabilly, S. (ed.), Combinatorial Peptide Library Protocols (Humana Press Inc.: Totowa, N.J., 1998), pp. 249-264. Then phage concentrations were normalized to yield a maximal ELISA signal of 0.2-0.4 for each mutant (Lowman, in Cabilly, S. (ed.), supra). Threefold serial dilutions of soluble competitor were prepared on non-absorbent microtiter plates (Nune, F, 96 wells) with binding buffer (0.5% TWEEN™ 20/PBS) containing phage at the previously-determined concentrations. The dilution range of competitor protein extended over six orders of magnitude, starting at 5 μM for IGFBP-1 and 500 nM for IGFBP-3. After blocking, the plates containing immobilized target were washed with 0.05% TWEEN™/PBS buffer and subsequently incubated with 80 μl/well of the premixed phage-competitor solutions for 1 hour at room temperature. After washing, bound phage was detected with 80 μl/well of a solution containing a primary rabbit anti-phage polyclonal antibody and a secondary goat anti-rabbit monoclonal antibody-horseradish peroxidase conjugate in 0.5% TWEEN20™/PBS. o-Phenylenediamine (Sigma) and tetramethylbenzidine (Kirkegaard and Perry) were used as chromogenic substrates, resulting in product detection at 492 and 450 nm, respectively. IC₅₀ values were determined by fitting the binding data to a generic saturation curve (Lowman, in Cabilly, S. (ed.), supra).
# [1] = molecular target: T3, recombinant human IGFBP-3 (human, UniProt P17936 28-291); assay: competitive phage ELISA
# T3 construct: mature
# Protocol: as §1
# [2] = molecular target: T2, human IGFBP-1 (human), P08833; assay: competitive phage ELISA; conditions: remark: other sources report otherwise
# [3] = molecular target: T2, human IGFBP-1 (human), P08833; assay: competitive phage ELISA, IGFBP-3-coated wells, soluble IGFBP-1 as competitor (FIG. 3A); conditions: remark: other sources report otherwise
# T3 sequence (P17936 28-291): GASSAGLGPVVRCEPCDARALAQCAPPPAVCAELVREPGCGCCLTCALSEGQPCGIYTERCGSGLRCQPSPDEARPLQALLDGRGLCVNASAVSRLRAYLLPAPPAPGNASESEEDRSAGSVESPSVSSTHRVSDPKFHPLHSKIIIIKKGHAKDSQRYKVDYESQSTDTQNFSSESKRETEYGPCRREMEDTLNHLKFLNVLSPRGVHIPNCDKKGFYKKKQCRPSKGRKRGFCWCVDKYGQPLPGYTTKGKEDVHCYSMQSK
molecule,measurement,setting,value
IGF-I L5A (phage-displayed) (from UniProt P69168 267-424) (ligand),relative IC50 (IC50 mut/IC50 G1S-A70V),human IGFBP-1,6.7
same,relative IC50 (IC50 mut/IC50 G1S-A70V),[1],2
B1,relative IC50 (IC50 mut/IC50 G1S-A70V),[2],> 100
same,shift of the binding curve against G1S-A70V phage,[3],> 100 fold
B2,IC50,human IGFBP-1,90.4 nM
same,IC50,[1],1.12 nM
B3,IC50,[1],4.58 nM
